Numbering of substitutions follows the chain as printed. Names and notes keep the numbering of the source.
T1: GST-Bud2-N, GST-tagged N-terminal 336 amino acids of Bud2p (S. cerevisiae, UniProt P33314 1-336)
T1 sequence (looked up): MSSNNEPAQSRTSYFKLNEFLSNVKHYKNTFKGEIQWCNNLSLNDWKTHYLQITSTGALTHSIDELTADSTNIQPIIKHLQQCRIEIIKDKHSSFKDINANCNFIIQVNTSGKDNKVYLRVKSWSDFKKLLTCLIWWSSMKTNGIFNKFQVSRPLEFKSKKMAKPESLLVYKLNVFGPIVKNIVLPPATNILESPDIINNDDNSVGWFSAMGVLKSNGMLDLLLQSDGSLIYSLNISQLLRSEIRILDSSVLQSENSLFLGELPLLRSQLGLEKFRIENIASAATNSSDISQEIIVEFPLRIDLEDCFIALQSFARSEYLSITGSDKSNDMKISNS

T2: His-Arf3, purified, prebound with GTPγS or GDP (S. cerevisiae, UniProt P40994 1-183)
T2 sequence (looked up): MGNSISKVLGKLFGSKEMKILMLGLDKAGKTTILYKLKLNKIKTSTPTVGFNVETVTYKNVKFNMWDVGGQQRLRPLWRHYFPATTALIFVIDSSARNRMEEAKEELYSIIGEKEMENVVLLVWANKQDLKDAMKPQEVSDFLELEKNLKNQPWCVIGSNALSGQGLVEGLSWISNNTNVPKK

B1: His-Arf3^Q71L, recombinant histidine-tagged constitutively active Arf3 (natural protein, S. cerevisiae, UniProt P40994 1-183, looked up)
chain: T2 sequence (looked up) with Q71L
B2: GST-Bud2N1, GST-tagged first 120 residues of Bud2p (domain or fragment, S. cerevisiae, UniProt P33314 1-120, looked up)
chain: MSSNNEPAQSRTSYFKLNEFLSNVKHYKNTFKGEIQWCNNLSLNDWKTHYLQITSTGALTHSIDELTADSTNIQPIIKHLQQCRIEIIKDKHSSFKDINANCNFIIQVNTSGKDNKVYLR

Columns and labels:
Assay in all cases: pull-down
[1] = biological target: T1, GST-Bud2-N, GST-tagged N-terminal 336 …
[2] = biological target: B1
[3] = biological target: T2, His-Arf3, purified, prebound with GTPγS …

binding result [1] | binding result [2] | binding result [3] | Binder
binds | – | – | B1
– | binds | binds | B2

— publication PMC3727926 (Molecular Biology of the Cell, 2013)
